Test results from patent US20250115671A1 (BEIGENE, published 2025).
Numbering of substitutions follows the chain as printed. Read-outs that look alike come from different tables or passages of the source. One block for each molecule: values may come before it.

Legend:
human CCR8 [1] = biological target: T1, human CCR8 (human, UniProt P51685 1-355); test: flow cytometry, Jurkat-human CCR8 cells
Experimental: To evaluate the binding activity of anti-CCR8 antibodies to bind CCR8 expressed on living cells, Jurkat cells were engineered to over-express human CCR8. Jurkat-human CCR8 cells were seeded in 96-well plate and incubated with a series of dilutions of anti-CCR8 antibodies. Goat anti-human IgG was used as secondary antibody to detect antibody binding to the cell surface. EC50 values for dose-dependent binding to human CCR8 were determined by fitting the dose-response data to the four-parameter logistic model with GraphPad Prism. As shown in Table 4 and FIG. 3 the CCR8 antibodies had high binding affinity to human CCR8.

human CCR8 [2] = biological target: T1, human CCR8; test: flow cytometry, stimulated human primary Treg cells (high CCR8)
Experimental: Treg binding of the humanized antibodies was measured on Treg cells from human PBMC. Briefly, CD25+ cells were isolated from human PBMC. The cells were stimulated with IL-2, TGFβ and anti-CD3/CD28 beads for high CCR8-expression level Treg cells. Next, Treg cells were seeded in 96-well plate and incubated with a series of dilutions of anti-CCR8 antibodies. Goat anti-human IgG was used as secondary antibody to detect antibody binding to the cell surface. EC50 values for dose-dependent binding to human CCR8 were determined by fitting the dose-response data to the four-parameter logistic model with GraphPad Prism. As shown in FIG. 6A and Table 12 the hu305-5W-3a had the highest binding affinity to CCR8 on Treg cells of the humanized antibodies. As noted in Table 12 and FIG. 6A below, the hu305-5W-3a antibody also had the lowest IC50 regarding reducing ligand-receptor interaction.

[3] = biological target: human CCR8 N-terminal domain-mouse Fc tag fusion protein (human (CCR8 part), mouse IgG2a Fc); test: ELISA, plate coated with human CCR8 N-terminal domain-Fc fusion
human CCR8 [4] = biological target: T1, human CCR8; test: FACS binning, Jurkat-huCCR8, 200 nM each; row = unlabeled 1st Ab; competitor (APC labeled 2nd Ab): 433H
human CCR8 [5] = biological target: T1, human CCR8; test: FACS binning, Jurkat-huCCR8, 200 nM each; row = unlabeled 1st Ab; competitor (APC labeled 2nd Ab): 4A19
human CCR8 [6] = biological target: T1, human CCR8; test: FACS binning, Jurkat-huCCR8, 200 nM each; row = unlabeled 1st Ab; competitor (APC labeled 2nd Ab): Ch127
human CCR8 [7] = biological target: T1, human CCR8; test: FACS binning, Jurkat-huCCR8, 200 nM each; row = unlabeled 1st Ab; competitor (APC labeled 2nd Ab): Ch211
human CCR8 [8] = biological target: T1, human CCR8; test: FACS binning, Jurkat-huCCR8, 200 nM each; row = unlabeled 1st Ab; competitor (APC labeled 2nd Ab): Ch305
human CCR8 [9] = biological target: T1, human CCR8; test: FACS binning, Jurkat-huCCR8, 200 nM each; row = unlabeled 1st Ab; competitor (APC labeled 2nd Ab): Ch326
human CCR8 [10] = biological target: T1, human CCR8; test: FACS binning, Jurkat-huCCR8, 200 nM each; row = unlabeled 1st Ab; competitor (APC labeled 2nd Ab): Ch366-2
[11] = biological target: T2, human CCR8 N-terminal domain-mouse Fc tag fusion protein (human (CCR8 part), mouse IgG2a Fc); test: ELISA, plate coated with human CCR8 N-terminal domain-Fc fusion
T2 construct: also called huCCR8-N-mIgG2a; human CCR8 N-terminal protein
T2 chain: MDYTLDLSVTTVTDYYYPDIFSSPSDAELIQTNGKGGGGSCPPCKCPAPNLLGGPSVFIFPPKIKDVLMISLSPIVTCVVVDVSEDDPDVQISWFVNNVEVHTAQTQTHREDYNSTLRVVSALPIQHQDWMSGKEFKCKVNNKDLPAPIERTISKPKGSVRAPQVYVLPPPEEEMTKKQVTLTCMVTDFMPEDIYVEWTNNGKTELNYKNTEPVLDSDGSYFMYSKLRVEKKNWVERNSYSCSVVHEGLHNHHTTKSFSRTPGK
Experimental: To determine whether anti-CCR8 antibodies bind to the N-terminal domain of human CCR8, ELISA plates were coated with human CCR8 N-terminal domain-mouse Fc tag fusion protein (SEQ ID NO: 28 and 29) overnight at 4° C. After washing and blocking, serially diluted anti-CCR8 antibodies were added to plates and incubated for 1 hour at room temperature. After washing, diluted HRP goat anti-human IgG Fc or HRP goat anti-mouse kappa chain (for 433H) secondary antibodies were added to plates and incubated for 45 minutes at room temperature. After washing, TMB substrate was added to plates for developing and then stopped by adding TMB substrate stop solution. The absorbance was read at 450 nm using a plate reader. […] It is a non CCR8 N-terminal loop binder.

human CCR8 [12] = biological target: T1, human CCR8; test: cell-based or functional assay
human CCR8 [13] = biological target: T1, human CCR8; test: cell-based or functional assay; remark: listed apart in the source
Cynomolgus Monkey CCR8 = biological target: T3, Cynomolgus Monkey CCR8 (cynomolgus monkey, UniProt O97665 1-356 (rhesus entry)); test: flow cytometry, 293T-cynoCCR8 cells
T3 construct: also called cyno CCR8; cynoCCR8
Experimental: Goat anti-human IgG was used as secondary antibody to detect antibody binding to the cell surface. EC50 values for dose-dependent binding to cyno CCR8 were determined by fitting the dose-response data to the four-parameter logistic model with GraphPad Prism.

human CCR8 [14] = biological target: T1, human CCR8; test: flow cytometry, Jurkat/huCCR8 cells, Test1
Experimental: (§1) To evaluate the binding activities of anti-CCR8 antibodies to bind native CCR8 on live cells, Jurkat cells (ATCC TIB-15) were engineered to over-express human CCR8. Live Jurkat/huCCR8 cells were seeded in 96-well plate, and were incubated with a series of dilutions of anti-CCR8 antibodies. Alexa Fluor® 647 anti-Human IgG Fc Antibody (Biolegend cat: 410714) was used as a secondary antibody to detect antibody binding to CCR8 expressed on the cell surface. EC50 values for dose-dependent binding to human native CCR8 were determined by fitting the dose-response data to the four-parameter logistic model with GraphPad Prism.

human CCR8 [15] = biological target: T1, human CCR8; test: flow cytometry, Jurkat/huCCR8 cells, Test2
Experimental: as §1

T1 sequence (P51685 whole entry): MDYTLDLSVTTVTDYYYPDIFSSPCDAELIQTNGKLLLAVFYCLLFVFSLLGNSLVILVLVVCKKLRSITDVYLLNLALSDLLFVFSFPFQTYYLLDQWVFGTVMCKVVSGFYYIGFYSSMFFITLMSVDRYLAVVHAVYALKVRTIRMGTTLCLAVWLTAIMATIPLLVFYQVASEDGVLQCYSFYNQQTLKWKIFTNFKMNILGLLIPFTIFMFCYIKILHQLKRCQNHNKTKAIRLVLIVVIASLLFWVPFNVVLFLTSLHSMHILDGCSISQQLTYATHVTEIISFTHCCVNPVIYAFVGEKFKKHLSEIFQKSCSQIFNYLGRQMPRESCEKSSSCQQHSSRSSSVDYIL
T3 sequence (O97665 other isoform, or with tags, fused parts or gaps): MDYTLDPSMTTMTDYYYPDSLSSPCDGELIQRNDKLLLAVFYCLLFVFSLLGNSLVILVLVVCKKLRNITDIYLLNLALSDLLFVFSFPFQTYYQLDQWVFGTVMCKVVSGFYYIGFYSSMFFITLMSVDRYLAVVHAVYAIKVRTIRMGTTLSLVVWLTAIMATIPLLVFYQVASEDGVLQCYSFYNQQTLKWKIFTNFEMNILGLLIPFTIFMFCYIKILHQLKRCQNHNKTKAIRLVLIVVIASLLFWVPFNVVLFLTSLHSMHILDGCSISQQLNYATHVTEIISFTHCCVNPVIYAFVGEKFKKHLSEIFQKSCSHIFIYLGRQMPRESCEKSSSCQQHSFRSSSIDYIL

Molecule: hIgG (antibody)
Emax (human CCR8 [1]): 204 RFU
Emax (human CCR8 [2]): 60 RLU

B1: 433H (antibody, from another filing, V domains shown)
VH: EVQLVETGGGLVQPKGSLRLSCAASGFPFNTFAMNWVRQAPGKGLEWLARIRSKSNNYATYYADSVKDRFTISRDDSRRMLYLLMNNVKFEDTAIYYCVRGKENNYGYAMDYWGQGTSVTVSS
VL: DIVMTQAAPSVPVTPGESVSISCRSSQSLLHSNGNTYLYWFLQRPGQSPQLLIYRMSNLASGVPDRFSGSGSGTAFTLRISRVEAEDVGVYYCMQHLEYPFTFGIGTKLELKR
EC50 [3]: 0.94 nM
% of the maximum binding of the APC labeled antibody (human CCR8 [4]): 3.03%
% of the maximum binding of the APC labeled antibody (human CCR8 [5]): 8.43%
% of the maximum binding of the APC labeled antibody (human CCR8 [6]): 2.55%
% of the maximum binding of the APC labeled antibody (human CCR8 [7]): 39.9%
% of the maximum binding of the APC labeled antibody (human CCR8 [8]): 28.9%
% of the maximum binding of the APC labeled antibody (human CCR8 [9]): 1.87%
% of the maximum binding of the APC labeled antibody (human CCR8 [10]): 14.2%

B2: 4A19 (antibody, V domains shown)
VH: QVQLVQSGAEVKKPGASVKVSCKASGYTFTDSEMHWVRQATGQGLEWMGAIQPETGGTAYNQKFKARVTMTRDTSISTAYMELSSLRSEDTAVYYCARRRRNFDYWGQGTLVTVSS
VL: DIVMTQTPLSLSVTPGQPASISCRSSQSLFHSSGNTYLHWYLQKPGQPPQLLIYKVSNRFSGVPDRFSGSGSGTDFTLKISRVEAEDVGVYYCSQSTHVPFTFGQGTKLEIKR
EC50 [11]: 0.11 nM

B3: Ch305-AF (antibody, V domains shown)
VH: QVQMKQSGPSLVQPSQSLSITCTVSGFSLTSYGVHWVRQSPGKGLEWLGVIWRGGTTDYNAAFMSRLSFTKDSSKSQVFFKLNSLQADDTAIYYCAKNRVTTVVAPNFYAMDYWGQGTSVTVSS
VL: DIVMTQSPSSLAVSVGEKVTMSCKSSQSLLYSGNQKNYLAWYQQKPGQSPKLLIYWASTRKSGVPDRLTGSGSGTDFTLTISSVKAEDLAAYYCQQYYTYPLTFGAGTRLEIK
notes: human IgG1/kappa; also called afucosylated Ch305
IC50(nM), blocking activity (human CCR8 [12]): 1.84 nM
Imax(%), blocking activity (human CCR8 [12]): 87.8%
EC50 (nM), NK cell mediated cytotoxicity (ADCC) on CCR8-expressing Treg (human CCR8 [13]): 0.064 nM
Emax (%), NK cell mediated cytotoxicity (ADCC) on CCR8-expressing Treg (human CCR8 [13]): 75.1%
EC50 (Cynomolgus Monkey CCR8): 14.8 nM
Emax (Cynomolgus Monkey CCR8): 11900 RLU
EC50 (human CCR8 [14]): 3.88 nM
Emax (human CCR8 [14]): 25200 MFI
EC50 (human CCR8 [15]): 4.75 nM
Emax (human CCR8 [15]): 16600 MFI
EC50 (human CCR8 [2]): 90.7 nM
Emax (human CCR8 [2]): 1750 RLU

B4: hu305-5W-3a-AF (antibody, V domains shown)
VH: QVQLKQSGPGLVKPSETLSLTCTVSGFSLAVYGVHWVRQPPGKGLEWLGVIWRGGTTDYNPSLKSRLTFSKDSSKSQVSLKLSSVTAADTAVYYCAKNRVTTVVAPNFYAMDYWGQGTLVTVSS
VL: DIVMTQSPDSLAVSLGERATINCKSSQSLLYSGNQKNYLAWYQQKPGQPPKLLIYWASTRKSGVPDRFSGSGSGTDFTLTISSLKAEDVAVYYCQQYYTYPLTFGQGTRLEIK
notes: also called afucosylated hu305-5W-3a
IC50(nM), blocking activity (human CCR8 [12]): 1.82 nM
Imax(%), blocking activity (human CCR8 [12]): 87.3%
EC50 (nM), NK cell mediated cytotoxicity (ADCC) on CCR8-expressing Treg (human CCR8 [13]): 0.059 nM
Emax (%), NK cell mediated cytotoxicity (ADCC) on CCR8-expressing Treg (human CCR8 [13]): 75.5%
EC50 (Cynomolgus Monkey CCR8): 12.5 nM
Emax (Cynomolgus Monkey CCR8): 12400 RLU
EC50 (human CCR8 [15]): 2.98 nM
Emax (human CCR8 [15]): 16700 MFI
EC50 (human CCR8 [2]): 47.6 nM
Emax (human CCR8 [2]): 2030 RLU

Second part, led by results:

IC50(nM), blocking activity (human CCR8 [12]): 13.1 nM
Imax(%), blocking activity (human CCR8 [12]): 75.6%
EC50 (Cynomolgus Monkey CCR8): 16.6 nM
Emax (Cynomolgus Monkey CCR8): 12300 RLU
EC50 (human CCR8 [14]): 5.83 nM
Emax (human CCR8 [14]): 22900 MFI
EC50 (human CCR8 [2]): 136 nM
Emax (human CCR8 [2]): 1860 RLU
B5: hu305-4F-2m-AF (antibody, V domains shown)
VH: B4 VH with K5Q, Q6E, E16Q
VL: B4 VL with A19V, P49S, K85Q, V91A
EC50 (nM), NK cell mediated cytotoxicity (ADCC) on CCR8-expressing Treg (human CCR8 [13]): 0.585 nM
Emax (%), NK cell mediated cytotoxicity (ADCC) on CCR8-expressing Treg (human CCR8 [13]): 70.9%

IC50(nM), blocking activity (human CCR8 [12]): 6.19 nM
Imax(%), blocking activity (human CCR8 [12]): 78%
EC50 (Cynomolgus Monkey CCR8): 16.7 nM
Emax (Cynomolgus Monkey CCR8): 12500 RLU
EC50 (human CCR8 [14]): 6.01 nM
Emax (human CCR8 [14]): 23500 MFI
EC50 (human CCR8 [2]): 117 nM
Emax (human CCR8 [2]): 1760 RLU
B6: hu305-4F-2l-AF (antibody, V domains shown)
VH: B4 VH with K5Q, Q6E, E16Q
VL: B4 VL with A19V, I21M, P49S, K85Q, V91A
notes: also called hu305-4F-21-AF; hu305-4F-21
EC50 (nM), NK cell mediated cytotoxicity (ADCC) on CCR8-expressing Treg (human CCR8 [13]): 0.396 nM
Emax (%), NK cell mediated cytotoxicity (ADCC) on CCR8-expressing Treg (human CCR8 [13]): 72.3%

IC50(nM), blocking activity (human CCR8 [12]): 10.5 nM
Imax(%), blocking activity (human CCR8 [12]): 77.1%
EC50 (Cynomolgus Monkey CCR8): 9.83 nM
Emax (Cynomolgus Monkey CCR8): 12600 RLU
EC50 (human CCR8 [15]): 2.99 nM
Emax (human CCR8 [15]): 17500 MFI
EC50 (human CCR8 [2]): 35.2 nM
Emax (human CCR8 [2]): 1720 RLU
B7: hu305-5P-3a-AF (antibody, V domains shown)
VH: B4 VH with A30T, V31S, L67V, S76N
VL: B4 VL
EC50 (nM), NK cell mediated cytotoxicity (ADCC) on CCR8-expressing Treg (human CCR8 [13]): 0.077 nM
Emax (%), NK cell mediated cytotoxicity (ADCC) on CCR8-expressing Treg (human CCR8 [13]): 73.7%
